Experimental findings from PMC4099074, “Palmitoylation of Gephyrin Controls Receptor Clustering and Plasticity of GABAergic Synapses” (PLoS Biology, 2014) are described below.

The series deals with the molecule itself. Put plainly: SEC; lysates of control and 2-BP-treated primary hippocampal neurons; fifteen fractions immunoblotted for gephyrin and PSD-95; reference proteins for size.

Several values for one entry are separate records, joined by “and”; a condition that tells them apart may be missing. Equal values may be shown once.

A word on the stoichiometry N: it is a count of units in the complex or per binding partner.

B1: gephyrin, endogenous in primary hippocampal neurons (natural protein, UniProt Q8BUV3 1-769, looked up)
chain: MATEGMILTNHDHQIRVGVLTVSDSCFRNLAEDRSGINLKDLVQDPSLLGGTISAYKIVPDEIEEIKETLIDWCDEKELNLILTTGGTGFAPRDVTPEATKEVIEREAPGMALAMLMGSLNVTPLGMLSRPVCGIRGKTLIINLPGSKKGSQECFQFILPALPHAIDLLRDAIVKVKEVHDELEDLPSPPPPLSPPPTTSPHKQTEDKGVQCEEEEEEKKDSGVASTEDSSSSHITAAALAAKIPDSIISRGVQVLPRDTASLSTTPSESPRAQATSRLSTASCPTPKQIRRPDESKGVASRVGSLKARLPSCSSTYSVSEVQSRCSSKENILRASHSAVDITKVARRHRMSPFPLTSMDKAFITVLEMTPVLGTEIINYRDGMGRVLAQDVYAKDNLPPFPASVKDGYAVRAADGPGDRFIIGESQAGEQPTQTVMPGQVMRVTTGAPIPCGADAVVQVEDTELIRESDDGTEELEVRILVQARPGQDIRPIGHDIKRGECVLAKGTHMGPSEIGLLATVGVTEVEVNKFPVVAVMSTGNELLNPEDDLLPGKIRDSNRSTLLATIQEHGYPTINLGIVGDNPDDLLNALNEGISRADVIITSGGVSMGEKDYLKQVLDIDLHAQIHFGRVFMKPGLPTTFATLDIDGVRKIIFALPGNPVSAVVTCNLFVVPALRKMQGILDPRPTIIKARLSCDVKLDPRPEYHRCILTWHHQEPLPWAQSTGNQMSSRLMSMRSANGLLMLPPKTEQYVELHKGEVVDVMVIGRL
notes: gephyrin, endogenous; A fraction of it is palmitoylated on Cys212 and Cys284 (7.5% in mouse brain); also called native neuronal gephyrin; gephyrin (83 kDa); source: endogenous, lysates of primary hippocampal neurons (control and 2-BP-treated)
For B1, the “stoichiometry N” value is 6 and 9.
